In PMC11319201 one finds fold lower affinity than WT data, which are given here for one substance.

For the experiment, the target named is STAG2^R370Q–RAD21 complex (UniProt Q8N3U4). The experiment in a line: ITC; MicroCal iTC 200, 25 °C; 20 mM Tris pH 7.7, 150 mM NaCl, 0.5 mM TCEP; 300 μl of 50 μM STAG2–RAD21 in the cell, 500 μM CTCF peptide injected as 16 x 2.5 μl; one-site binding model. Background: In ITC the heat of successive injections is recorded.
Chain of STAG2^R370Q–RAD21 complex (Q8N3U4 whole entry R370Q, chain 1 of 2): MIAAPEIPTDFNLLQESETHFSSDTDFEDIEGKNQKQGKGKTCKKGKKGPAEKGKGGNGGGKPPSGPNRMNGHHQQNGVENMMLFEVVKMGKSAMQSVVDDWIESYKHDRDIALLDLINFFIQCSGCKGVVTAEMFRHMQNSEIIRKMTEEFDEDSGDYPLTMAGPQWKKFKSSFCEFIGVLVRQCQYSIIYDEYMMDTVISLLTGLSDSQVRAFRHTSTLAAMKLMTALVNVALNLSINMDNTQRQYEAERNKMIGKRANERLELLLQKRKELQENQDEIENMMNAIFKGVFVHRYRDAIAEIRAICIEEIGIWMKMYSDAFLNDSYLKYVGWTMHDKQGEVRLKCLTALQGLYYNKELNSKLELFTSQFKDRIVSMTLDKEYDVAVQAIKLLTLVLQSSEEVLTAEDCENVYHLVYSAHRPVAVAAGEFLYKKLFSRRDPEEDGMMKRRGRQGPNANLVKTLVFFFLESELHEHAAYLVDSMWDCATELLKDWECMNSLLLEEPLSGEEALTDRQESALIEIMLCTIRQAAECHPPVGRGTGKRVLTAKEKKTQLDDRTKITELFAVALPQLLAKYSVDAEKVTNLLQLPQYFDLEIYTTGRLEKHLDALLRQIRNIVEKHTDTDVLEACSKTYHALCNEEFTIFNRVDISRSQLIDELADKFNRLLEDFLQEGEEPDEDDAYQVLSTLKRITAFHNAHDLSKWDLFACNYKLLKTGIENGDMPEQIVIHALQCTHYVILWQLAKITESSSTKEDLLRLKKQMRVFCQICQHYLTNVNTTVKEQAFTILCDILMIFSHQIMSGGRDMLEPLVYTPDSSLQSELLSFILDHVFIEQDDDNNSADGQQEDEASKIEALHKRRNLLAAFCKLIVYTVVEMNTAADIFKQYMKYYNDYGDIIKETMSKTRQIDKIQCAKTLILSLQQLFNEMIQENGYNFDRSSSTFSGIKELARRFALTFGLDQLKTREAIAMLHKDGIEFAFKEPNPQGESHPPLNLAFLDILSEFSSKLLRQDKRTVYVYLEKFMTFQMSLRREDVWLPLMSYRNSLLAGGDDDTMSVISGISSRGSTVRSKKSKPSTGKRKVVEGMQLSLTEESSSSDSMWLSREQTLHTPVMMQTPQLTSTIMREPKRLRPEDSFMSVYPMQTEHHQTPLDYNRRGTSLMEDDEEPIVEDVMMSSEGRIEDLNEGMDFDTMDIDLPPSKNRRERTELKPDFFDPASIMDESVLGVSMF
Chain of STAG2^R370Q–RAD21 complex (O60216 whole entry, chain 2 of 2, further chain): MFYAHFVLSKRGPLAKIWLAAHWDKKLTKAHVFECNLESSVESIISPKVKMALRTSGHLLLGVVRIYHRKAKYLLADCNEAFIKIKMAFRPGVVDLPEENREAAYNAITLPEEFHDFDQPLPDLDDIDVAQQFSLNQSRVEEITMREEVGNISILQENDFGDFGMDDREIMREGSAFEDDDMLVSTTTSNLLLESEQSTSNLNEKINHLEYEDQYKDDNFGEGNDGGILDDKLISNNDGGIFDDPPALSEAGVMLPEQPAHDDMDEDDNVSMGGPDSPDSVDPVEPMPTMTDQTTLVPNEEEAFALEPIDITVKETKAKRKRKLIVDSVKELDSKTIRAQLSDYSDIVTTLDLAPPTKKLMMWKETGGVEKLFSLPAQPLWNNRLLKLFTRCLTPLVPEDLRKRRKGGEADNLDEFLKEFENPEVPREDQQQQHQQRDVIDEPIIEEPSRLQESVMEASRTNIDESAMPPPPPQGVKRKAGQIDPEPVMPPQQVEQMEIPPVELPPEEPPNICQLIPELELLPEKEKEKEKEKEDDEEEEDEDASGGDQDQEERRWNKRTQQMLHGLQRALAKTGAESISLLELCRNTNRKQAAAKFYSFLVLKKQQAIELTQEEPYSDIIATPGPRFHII

The substance CTCF peptide returned a fold lower affinity than WT of 10 fold.
